From US20220185908A1 come the findings set out here.

Read-outs that look alike come from different tables or passages of the source.

Experiment [1] addresses CD38 on cells (Raji, Daudi, REH, CD38-transfected HEK293) (human) (UniProt P28907). Put plainly: flow cytometry, Raji cells expressing CD19 and CD38.
The target is the same in experiment [2]. Put plainly: flow cytometry, Raji cells; top asymptote fixed at about the maximum response of Darzalex. Background: In flow cytometry, cells or beads pass a laser one at a time.
The target is the same in experiment [3]. In words: flow cytometry, Raji cells expressing CD19 and CD38. This is another data set of the same source.

One may read the EC50 as the concentration that produces a half-maximal response. A lower EC50 goes with a more potent agent. Consider Darzalex ® (CD38 control) (antibody), for which, in experiment [1], the concentration giving a half-maximal response (EC50) was determined as 0.195 µg/mL and the Max MFI is 4.02e+06 MFI. This substance yielded an Adjusted EC50 in experiment [2] of 1.27 nM. In experiment [3], this substance showed an EC50 of 1.27 nM.
